Source: patent publication USRE48267E1, “Variants of C-type natriuretic peptide” (priority 2009, dated 2020)
Positions count from the first letter of the chain named. Names may count otherwise. Bridges are numbered along the chain shown (N, C = ends). Where no end group is shown, it is not given here. The star is where a group is joined. Heptanoyl = CCCCCCC(=O)*

T1: NPR-B (natriuretic peptide receptor B), murine, expressed endogenously on NIH3T3 cells (murine, UniProt Q6VVW5 17-1047)
T1 sequence (looked up): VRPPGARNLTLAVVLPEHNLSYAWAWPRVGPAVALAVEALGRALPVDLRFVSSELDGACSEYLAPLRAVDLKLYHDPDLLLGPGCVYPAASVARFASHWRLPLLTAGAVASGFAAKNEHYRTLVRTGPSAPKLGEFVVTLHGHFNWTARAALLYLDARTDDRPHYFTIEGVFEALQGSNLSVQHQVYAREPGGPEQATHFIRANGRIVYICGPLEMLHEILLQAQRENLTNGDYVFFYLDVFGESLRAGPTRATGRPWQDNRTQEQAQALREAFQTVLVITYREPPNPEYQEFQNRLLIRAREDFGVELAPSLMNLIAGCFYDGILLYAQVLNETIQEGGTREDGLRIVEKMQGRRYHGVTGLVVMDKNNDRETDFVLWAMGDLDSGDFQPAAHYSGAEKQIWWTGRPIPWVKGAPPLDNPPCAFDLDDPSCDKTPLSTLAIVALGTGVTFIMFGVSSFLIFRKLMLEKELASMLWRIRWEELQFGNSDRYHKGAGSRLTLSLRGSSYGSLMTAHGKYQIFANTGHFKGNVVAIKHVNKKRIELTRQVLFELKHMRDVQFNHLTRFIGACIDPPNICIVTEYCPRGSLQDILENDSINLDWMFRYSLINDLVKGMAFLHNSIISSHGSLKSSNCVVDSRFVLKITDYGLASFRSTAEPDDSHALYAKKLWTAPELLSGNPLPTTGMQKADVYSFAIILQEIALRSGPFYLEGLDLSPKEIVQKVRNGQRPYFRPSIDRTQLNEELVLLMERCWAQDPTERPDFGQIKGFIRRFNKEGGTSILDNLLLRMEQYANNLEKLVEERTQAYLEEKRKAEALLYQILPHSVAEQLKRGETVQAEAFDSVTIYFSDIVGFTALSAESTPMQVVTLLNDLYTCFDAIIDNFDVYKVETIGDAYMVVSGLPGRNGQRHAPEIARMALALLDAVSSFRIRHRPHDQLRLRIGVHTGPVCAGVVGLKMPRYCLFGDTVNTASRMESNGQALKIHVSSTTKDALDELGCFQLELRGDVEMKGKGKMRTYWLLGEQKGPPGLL

B1: GQPREPQVYTLPPS-CNP22 (IgG1(Fc) fragment) (peptide)
peptide: GQPREPQVYTLPPSGLSKGCFGLKLDRIGSMSGLGC
B2: AAWARLLQEHPNAR-CNP22 (peptide)
peptide: AAWARLLQEHPNARGLSKGCFGLKLDRIGSMSGLGC
modifications: ends and bridges not checked; cysteine pairing not given here
B3: QEHPNARKYKGANKK-CNP22 (CNP37) (peptide)
peptide: QEHPNARKYKGANKKGLSKGCFGLKLDRIGSMSGLGC
modifications: ends and bridges not checked; cysteine pairing not given here
B4: GSTGQWHSESGANQQ-CNP22, K4R (fibrinogen) (peptide)
peptide: GSTGQWHSESGANQQGLSRGCFGLKLDRIGSMSGLGC
B5: GANQQ-CNP22, K4R (peptide)
peptide: GANQQGLSRGCFGLKLDRIGSMSGLGC
B6: GANSS-CNP22, K4R (peptide)
peptide: GANSSGLSRGCFGLKLDRIGSMSGLGC
B7: Heptanoic acid (N-term.)-CNP22, G1E (peptide)
peptide: Heptanoyl-ELSKGCFGLKLDRIGSMSGLGC
modifications: ends and bridges not checked
B8: GHKSEVAHRFKGANKK-CNP22 (HSA-CNP27) (peptide)
peptide: GHKSEVAHRFKGANKKGLSKGCFGLKLDRIGSMSGLGC
B9: GANPR-CNP22, K4R (peptide)
peptide: GANPRGLSRGCFGLKLDRIGSMSGLGC
B10: ER-CNP22, K4R (peptide)
peptide: ERGLSRGCFGLKLDRIGSMSGLGC
B11: GQEHPNARKYKGANPK-CNP22 (modified CNP37) (peptide)
peptide: GQEHPNARKYKGANPKGLSKGCFGLKLDRIGSMSGLGC
modifications: ends and bridges not checked; cysteine pairing not given here
B12: GQEHPNARKYKGANQQ-CNP22 (modified CNP37) (peptide)
peptide: B11 peptide with P15Q, K16Q
modifications: ends and bridges not checked; cysteine pairing not given here
B13: GQEHPNARKYKGANQK-CNP22 (modified CNP37) (peptide)
peptide: B11 peptide with P15Q
modifications: ends and bridges not checked; cysteine pairing not given here
B14: GQEHPNARKYKGANKK-CNP22 (Gly-CNP37) (peptide)
peptide: B11 peptide with P15K
modifications: ends and bridges not checked; cysteine pairing not given here
B15: AAWARLLQEHPNA-CNP22 (peptide)
peptide: AAWARLLQEHPNAGLSKGCFGLKLDRIGSMSGLGC
modifications: ends and bridges not checked; cysteine pairing not given here
B16: GERAFKAWAVARLSQ-CNP22 (HSA fragment) (peptide)
peptide: GERAFKAWAVARLSQGLSKGCFGLKLDRIGSMSGLGC
B17: GANRR-CNP22, K4R (peptide)
peptide: GANRRGLSRGCFGLKLDRIGSMSGLGC
B18: CNP22, K4R, K10R, N-term.--N-term. dimer/Bis-PEO5 (peptide)
peptide: GLSRGCFGLRLDRIGSMSGLGC
modifications: ends and bridges not checked; also: dimer joined N-terminus to N-terminus by Bis-PEO5
B19: R-CNP22, K4R (peptide)
peptide: RGLSRGCFGLKLDRIGSMSGLGC
B20: PGHKSEVAHRFKGANKK-CNP22 (Pro-HSA-CNP27) (peptide)
peptide: PGHKSEVAHRFKGANKKGLSKGCFGLKLDRIGSMSGLGC
B21: DLRVDTKSRAAWAR-CNP22 (peptide)
peptide: DLRVDTKSRAAWARGLSKGCFGLKLDRIGSMSGLGC
B22: GQTHSSGTQSGANQQ-CNP22, K4R (fibrinogen) (peptide)
peptide: GQTHSSGTQSGANQQGLSRGCFGLKLDRIGSMSGLGC
B23: SPKMVQGSG-CNP17-KVLRRH (BNP tails) (peptide)
peptide: SPKMVQGSGCFGLKLDRIGSMSGLGCKVLRRH
modifications: disulfide 10-26 (inferred)
B24: CNP22, K4R, K10R, N-term.--N-term. dimer/disuccinimidyl glutarate (peptide)
peptide: GLSRGCFGLRLDRIGSMSGLGC
modifications: ends and bridges not checked; also: dimer joined N-terminus to N-terminus by disuccinimidyl glutarate
B25: PGQEHPNARKYKGANKK-CNP22 (Pro-Gly-CNP37) (peptide)
peptide: PGQEHPNARKYKGANKKGLSKGCFGLKLDRIGSMSGLGC
modifications: ends and bridges not checked; cysteine pairing not given here
B26: GVPQVSTSTGANQQ-CNP22, K4R (HSA fragment) (peptide)
peptide: GVPQVSTSTGANQQGLSRGCFGLKLDRIGSMSGLGC
B27: GHHSHEQHPHGANQQ-CNP22 (HRGP fragment) (peptide)
peptide: GHHSHEQHPHGANQQGLSKGCFGLKLDRIGSMSGLGC
B28: GAHHPHEHDTHGANQQ-CNP22 (HRGP fragment) (peptide)
peptide: GAHHPHEHDTHGANQQGLSKGCFGLKLDRIGSMSGLGC
B29: GQPREPQVYTGANQQ-CNP22, K4R (IgG1(Fc) fragment) (peptide)
peptide: GQPREPQVYTGANQQGLSRGCFGLKLDRIGSMSGLGC

Biological target: T1, NPR-B (natriuretic peptide receptor B), …
Assay: cell-based or functional assay

Binder	cGMP response rel. to 1 uM CNP22; 10 nM peptide, NIH3T3 cells	cGMP response rel. to 1 uM CNP22; 1 uM peptide, NIH3T3 cells
B1	23 rel. to 1 uM CNP22 (100)	72 rel. to 1 uM CNP22 (100)
B2	36 rel. to 1 uM CNP22 (100)	84 rel. to 1 uM CNP22 (100)
B3	43 rel. to 1 uM CNP22 (100)	97 rel. to 1 uM CNP22 (100)
B4	2 rel. to 1 uM CNP22 (100)	33 rel. to 1 uM CNP22 (100)
B5	44 rel. to 1 uM CNP22 (100)	95 rel. to 1 uM CNP22 (100)
B6	27 rel. to 1 uM CNP22 (100)	88 rel. to 1 uM CNP22 (100)
B7	32 rel. to 1 uM CNP22 (100)	84 rel. to 1 uM CNP22 (100)
B8	51 rel. to 1 uM CNP22 (100)	109 rel. to 1 uM CNP22 (100)
B9	50 rel. to 1 uM CNP22 (100)	105 rel. to 1 uM CNP22 (100)
B10	38 rel. to 1 uM CNP22 (100)	113 rel. to 1 uM CNP22 (100)
B11	19 rel. to 1 uM CNP22 (100)	61 rel. to 1 uM CNP22 (100)
B12	9 rel. to 1 uM CNP22 (100)	57 rel. to 1 uM CNP22 (100)
B13	60 rel. to 1 uM CNP22 (100)	121 rel. to 1 uM CNP22 (100)
B14	50 rel. to 1 uM CNP22 (100)	98 rel. to 1 uM CNP22 (100)
B15	24 rel. to 1 uM CNP22 (100)	76 rel. to 1 uM CNP22 (100)
B16	15 rel. to 1 uM CNP22 (100)	87 rel. to 1 uM CNP22 (100)
B17	59 rel. to 1 uM CNP22 (100)	105 rel. to 1 uM CNP22 (100)
B18	19 rel. to 1 uM CNP22 (100)	41 rel. to 1 uM CNP22 (100)
B19	54 rel. to 1 uM CNP22 (100)	106 rel. to 1 uM CNP22 (100)
B20	32 rel. to 1 uM CNP22 (100)	107 rel. to 1 uM CNP22 (100)
B21	34 rel. to 1 uM CNP22 (100)	101 rel. to 1 uM CNP22 (100)
B22	12 rel. to 1 uM CNP22 (100)	115 rel. to 1 uM CNP22 (100)
B23	25 rel. to 1 uM CNP22 (100)	102 rel. to 1 uM CNP22 (100)
B24	19 rel. to 1 uM CNP22 (100)	44 rel. to 1 uM CNP22 (100)
B25	49 rel. to 1 uM CNP22 (100)	103 rel. to 1 uM CNP22 (100)
B26	3 rel. to 1 uM CNP22 (100)	35 rel. to 1 uM CNP22 (100)
B27	16 rel. to 1 uM CNP22 (100)	95 rel. to 1 uM CNP22 (100)
B28	14 rel. to 1 uM CNP22 (100)	77 rel. to 1 uM CNP22 (100)
B29	2 rel. to 1 uM CNP22 (100)	32 rel. to 1 uM CNP22 (100)
